Source: publication PMC3931707, “Distinct Structural Features of the Peroxide Response Regulator from Group A Streptococcus Drive DNA Binding”

B1: dpr segment (-185 to -135) (dsDNA)
DNA 1: ACACTTAATTAGAATCATTATCGTTTTATATCTATATTCTACAATGATTAA
DNA 2: TTAATCATTGTAGAATATAGATATAAAACGATAATGATTCTAATTAAGTGT

What was measured:
[1] = target: peroxide response regulator (PerR) from Group A streptococcus, recombinant 6xHis-tagged, wild type (Streptococcus pyogenes (Group A streptococcus) serotype M1 strain A20); assay: SEC; Superdex 75 size exclusion chromatography of purified PerR against molecular weight markers; apparent molecular weight about 42 kDa for the wild type
[2] = target: T1, PerR WT (Streptococcus pyogenes (GAS) serotype …, UniProt Q9A1M6 1-155); assay: EMSA; EMSA: 20 mM Tris pH 8.0, 50 mM KCl, 5% glycerol, 50 ug/ml BSA, 15 min at 25 C; 6% native PAGE in Tris-borate, ethidium bromide; details: protein: recombinant; tags: C-terminal 6xHis (pET-21b NdeI/XhoI); chain copies: 2
T1 sequence: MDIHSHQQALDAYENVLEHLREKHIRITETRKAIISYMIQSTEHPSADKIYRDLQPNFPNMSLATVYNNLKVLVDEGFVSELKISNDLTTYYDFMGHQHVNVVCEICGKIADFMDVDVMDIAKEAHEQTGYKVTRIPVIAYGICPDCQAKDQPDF

Molecule	stoichiometry N [1]	binding result [2]
peroxide response regulator (PerR) from Group A streptococcus, recombinant 6xHis-tagged, wild type (natural protein)	2	
B1		binds
